Reference: patent US20240425614A1 (NARA MEDICAL UNIVERSITY, published 2024)
Changes are numbered by the printed parent chain. Each block holds one binder with its values, some of them ahead of it.

Columns and labels:
[1] = biological target: von Willebrand factor (VWF) multimer in human plasma, P04275
[2] = biological target: T1, ADAMTS13 in normal human plasma (human, UniProt Q76LX8 75-1427); experiment: cell-based or functional assay
T1 sequence (looked up): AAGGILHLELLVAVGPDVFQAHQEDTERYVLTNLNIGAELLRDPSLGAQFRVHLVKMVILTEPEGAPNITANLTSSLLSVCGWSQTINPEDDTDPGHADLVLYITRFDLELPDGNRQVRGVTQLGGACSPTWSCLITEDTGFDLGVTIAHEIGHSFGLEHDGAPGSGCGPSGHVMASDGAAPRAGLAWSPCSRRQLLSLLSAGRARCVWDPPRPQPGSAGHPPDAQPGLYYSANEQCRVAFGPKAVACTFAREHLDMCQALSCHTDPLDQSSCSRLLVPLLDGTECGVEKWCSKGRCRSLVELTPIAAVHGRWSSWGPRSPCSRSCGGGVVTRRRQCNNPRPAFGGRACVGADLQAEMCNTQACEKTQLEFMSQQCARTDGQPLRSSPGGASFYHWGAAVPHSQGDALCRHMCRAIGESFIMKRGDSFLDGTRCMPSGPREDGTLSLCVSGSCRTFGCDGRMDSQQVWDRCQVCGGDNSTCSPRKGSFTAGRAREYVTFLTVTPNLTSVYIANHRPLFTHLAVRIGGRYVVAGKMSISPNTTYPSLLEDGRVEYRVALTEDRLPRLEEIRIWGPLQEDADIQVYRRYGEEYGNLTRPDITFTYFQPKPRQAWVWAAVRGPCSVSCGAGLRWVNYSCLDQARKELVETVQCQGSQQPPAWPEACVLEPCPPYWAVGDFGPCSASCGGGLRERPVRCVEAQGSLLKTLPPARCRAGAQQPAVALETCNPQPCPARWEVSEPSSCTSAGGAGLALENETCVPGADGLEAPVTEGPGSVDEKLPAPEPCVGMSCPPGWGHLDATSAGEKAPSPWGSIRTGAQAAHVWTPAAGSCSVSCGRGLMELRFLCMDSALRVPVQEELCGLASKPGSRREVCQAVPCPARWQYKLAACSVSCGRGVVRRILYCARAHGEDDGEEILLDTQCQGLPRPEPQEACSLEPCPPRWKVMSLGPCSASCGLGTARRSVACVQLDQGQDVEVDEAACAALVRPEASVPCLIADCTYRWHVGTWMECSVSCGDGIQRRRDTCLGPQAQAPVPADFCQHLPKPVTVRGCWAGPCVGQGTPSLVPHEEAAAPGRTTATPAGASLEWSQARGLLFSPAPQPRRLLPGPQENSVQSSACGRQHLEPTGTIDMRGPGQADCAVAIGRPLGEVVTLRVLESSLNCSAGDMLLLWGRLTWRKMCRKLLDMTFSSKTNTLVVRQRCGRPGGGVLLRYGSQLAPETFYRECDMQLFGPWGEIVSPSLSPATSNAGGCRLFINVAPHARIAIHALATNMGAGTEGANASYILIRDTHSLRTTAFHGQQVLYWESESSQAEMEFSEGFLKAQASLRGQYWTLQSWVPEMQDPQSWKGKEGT

B1: ADAMTS13 in normal human plasma (protein)
chain: T1 sequence (looked up)
VWF multimer analysis (SDS-agarose gel, Western blot) of human plasma under high shear stress [1]: more deficiency in high-molecular-weight VWF multimer and stronger cleavage of VWF were shown with increase in shear stress of 108 dyne/cm^2, 216 dyne/cm^2, and 324 dyne/cm^2

ID50 concentration on the VWF cleaving activity of ADAMTS13 (ADAMTS13 activity remaining in human plasma, ELISA) [2]: ~7.28 µg/mL
B2: 1G2 antibody (antibody, mouse IgG1, kappa, V domains shown)
VH: QVQLRESGPGLVAPSQSLSITCTVSGFSLPRYGIHWVRQPPGKGLEWLGVIWAGGSTDYDSALMSRLSISKDTSKSQVFLKMSSLQTDDTAIYYCARAGGSQPFDYWGQGTTLTVSS
VL: DIKMTQSPSSMYASLGERVTITCKASRDINTYLSWFQQKPGKSPKTLISRANRLVDGVPSRFSGSGSGQDYSLSISSLEYEDMGFYYCLQYDEFPWTFGGGTKLVIKR

ID50 concentration on the VWF cleaving activity of ADAMTS13 (ADAMTS13 activity remaining in human plasma, ELISA) [2]: ~19.5 µg/mL
B3: 9A7 antibody (antibody, mouse IgG2b, kappa, V domains shown)
VH: QVQLKESGPGLVAPSQSLSITCTVSGFSLTGYGIHWVRQPPGKGLEWLGVIWADGTTNSNSALMSRLSISKDNSKSQVFLKMTSLQTDDTAMYHCARAGGSQPFDYWGQGTTLTVSS
VL: B2 VL with R27Q, T31S, S49F, S74T, G84E, F85I, V105E

ID50 concentration on the VWF cleaving activity of ADAMTS13 (ADAMTS13 activity remaining in human plasma, ELISA) [2]: ~25.4 µg/mL
B4: 12D10 antibody (antibody, mouse IgG1, kappa, V domains shown)
VH: QVQLKESGPGLVAPSQSLSITCTVSGFSLTRYGVHWVRQPPGKGLEWLGVIWAGGSTNYKSALMSRLNITKDNSKSQVFLKMNGLQTDDTAIYFCARAGGSSSFDYWGQGTTLTVSS
VL: B2 VL with Y12N, R27Q, S34G, S49Y, D70G, S74T, F85I, V105E
